In patent publication US20240043552A1 (Eli Lilly, published 2024):

Key:
Assay in all cases: sandwich ELISA with mis-matched antigens
hHER-2-Fc = target: T1, hHER-2-Fc (human, UniProt P04626 23-652)
T1 construct: Bought (R&D systems); Coated on the plate; not shown: Fc of the bought fusion protein
Protocol: (§1) The dual-binding activity of the same synthesized IgG BsAbs is assessed using a sandwich ELISA. […] Sandwich ELISAs are developed for detecting the four different BsAb test articles; one for detecting anti-HER-2/anti-EGFR BsAb activity, one for detecting anti-HER-2/anti-LTPR BsAb activity, one for detecting anti-cMET/anti-EGFR BsAb activity and one for detecting anti-cMET/anti-LTPR BsAb activity. For all ELISAs, clear 96-well round bottom high binding Immulon microtiter plates (Greiner bio-one, cat #650061) are coated overnight at 2-8° C. with 50 μL/well 1 μg/mL hHER-2-Fc or 1 μg/mL hHGFR(cMet)-Fc (both from R&D systems) in a 50 mM Na2CO3 pH 8.3 buffer. The plates are washed 4 times with PBST and blocked with 200 μL/well casein buffer (Pierce) for 1 hr at room temperature. The plates are then washed 4 times with PBST and the parental IgG controls or BsAb IgG test articles are added at 50 μL/well and […] and serially diluted 1:3 down the plate. The controls and test articles are incubated on the plate for 1 hr at room temperature. The plates are then washed 4 times with PBST and 50 μL/well 1 μg/mL hEGFR-Fc-biotin or hLTβR-Fc-biotin (both from R&D systems) is added for 1 hr at room temperature. The plates are then washed 4 times with PBST followed by the addition of a 50 μL/well streptavidin-AP (Jackson Immunoresearch Labs Cat. #016-050-084) diluted 1:1000 in casein buffer. The streptavidin-AP is incubated in each well for 1 hr at room temperature. The plates are then washed 4 times with PBST and 100 μL/well 1-step PNPP substrate is added (Thermo Scientific Cat. #37621). After approximately 5-15 minutes, plates are read for Absorbance (405 nm) using a SPECTRAMAX® UV plate reader (Molecular Devices). Biotin-labeling of the hEGFR-Fc and hLTβR-Fc proteins is performed using EZ-LINK™ Sulfo-NHS-LC-Biotin (Thermo Scientific Cat. #21327) according to the manufacturer's protocol.

hEGFR-Fc-biotin = target: T2, hEGFR-Fc-biotin (human, UniProt P00533 25-645, biotin-labelled with EZ-LINK Sulfo-NHS-LC-Biotin)
T2 construct: Bought (R&D systems); Detection antigen of the sandwich; not shown: Fc of the bought fusion protein
Protocol: as §1

hHGFR(cMet)-Fc = target: T3, hHGFR(cMet)-Fc (human, UniProt P08581 25-932)
T3 construct: Bought (R&D systems); Coated on the plate; not shown: Fc of the bought fusion protein
Protocol: as §1

T3 sequence (P08581 25-932): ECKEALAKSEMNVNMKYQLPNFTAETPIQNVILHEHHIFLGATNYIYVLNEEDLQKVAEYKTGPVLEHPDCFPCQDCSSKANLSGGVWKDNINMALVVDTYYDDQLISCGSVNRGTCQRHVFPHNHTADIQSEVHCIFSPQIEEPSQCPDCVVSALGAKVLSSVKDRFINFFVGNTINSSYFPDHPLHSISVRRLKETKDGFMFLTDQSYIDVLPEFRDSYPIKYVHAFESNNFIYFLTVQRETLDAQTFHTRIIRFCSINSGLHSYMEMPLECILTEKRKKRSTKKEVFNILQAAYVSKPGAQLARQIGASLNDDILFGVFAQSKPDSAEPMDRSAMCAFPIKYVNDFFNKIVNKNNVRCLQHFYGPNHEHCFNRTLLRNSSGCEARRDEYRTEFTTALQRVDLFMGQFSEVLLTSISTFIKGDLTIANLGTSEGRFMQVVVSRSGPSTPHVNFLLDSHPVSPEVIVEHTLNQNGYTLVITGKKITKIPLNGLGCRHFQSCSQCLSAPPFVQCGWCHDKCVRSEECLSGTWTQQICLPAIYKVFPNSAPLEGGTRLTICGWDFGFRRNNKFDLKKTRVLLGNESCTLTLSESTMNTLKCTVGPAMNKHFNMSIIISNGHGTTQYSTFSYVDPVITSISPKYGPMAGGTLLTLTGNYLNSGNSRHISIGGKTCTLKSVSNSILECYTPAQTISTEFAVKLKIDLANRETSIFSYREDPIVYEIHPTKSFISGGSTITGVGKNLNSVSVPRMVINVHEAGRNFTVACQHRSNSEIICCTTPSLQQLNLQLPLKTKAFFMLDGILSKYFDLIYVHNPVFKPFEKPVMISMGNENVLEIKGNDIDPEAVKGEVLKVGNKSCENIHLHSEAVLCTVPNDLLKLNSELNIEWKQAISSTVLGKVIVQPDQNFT

| binding result (hHER-2-Fc) | binding result (hEGFR-Fc-biotin) | binding result (hHGFR(cMet)-Fc) | Binder |
| --- | --- | --- | --- |
| no binding | no binding | – | MetMAb × BHA10 IgG BsAb, CH1/Cκ design 14.3.1.2 (bispecific antibody, Human IgG1; also called MetMAb × BHA10 14.3.1.2) heavy 1: EVQLVESGGGLVQPGGSLRLSCAASGYTFTSYWLHWVRKAPGKGLEWVGMIDPSNSDTRFNPEFKDRFTISADTSKNTAYLQMNSLRAEDTAVYYCATYRSYVTPLDYWGQGTLVTVSSASTKGPSVFPLAPSSKSTSGGTAALGCLVADYFPEPVTVSWNSGALTSGVHTFPAVLQSSGLYSLGSVVTVPSSSLGTQTYICNVNHKPSNTKVDKKVEPKSCDKTHTCPPCPAPELLGGPSVFLFPPKPKDTLMISRTPEVTCVVVDVSHEDPEVKFNWYVDGVEVHNAKTKPREEQYQSTYRVVSVLTVLHQDWLNGKEYKCKVSNKALPAPIEKTISKAKGQPREPQVYTLPPSREEMTDNQVSLTCLVKGFYPSDIAVEWESNGQPENNYKTTPPVLMSDGSFFLASKLTVDKSRWQQGNVFSCSVMHEALHNHYTQKSLSLSPG light 1: RIQMTQSPSSLSASVGDRVTITCKSSQSLLYTSSQKNYLAWYQDKPGKAPKLLIYWASTRESGVPSRFSGSGSGTDFTLTISSLQPEDFATYYCQQYYAYPWTFGQGTKVEIKRTVAAPSVFIFPPSDEQLKSGTARVVCLLNNFYPREAKVQWKVDNALQSGNSQESVTEQDSKDSTYSLISTLTLSKADYEKHKVYACEVTHQGLSSPVTKSFNRGEC heavy 2: QVQLVQSGAEVKKPGSSVKVSCKASGYTFTTYYLHWVRYAPGQGLEWMGWIYPGNVHAQYNEKFKGRVTITADKSTSTAYMELSSLRSEDTAVYYCARSWEGFPYWGRGTTVTVSSASTKGPSVFPLAPSSKSTSGGTAALGCLVKDYFPEPVTVSWNSGALTSGVHTFPAVLQSSGLYSLSSVVTVPSSSLGTQTYICNVNHKPSNTKVDEKVEPKSCDKTHTCPPCPAPELLGGPSVFLFPPKPKDTLMISRTPEVTCVVVDVSHEDPEVKFNWYVDGVEVHNAKTKPREEQYQSTYRVVSVLTVLHQDWLNGKEYKCKVSNKALPAPIEKTISKAKGQPRRPRVYTLPPSREEMTKNQVSLVCLVKGFYPSDIAVEWESNGQPENNYKTTPPVLDSDGSFFLYSVLTVDKSRWQQGNVFSCSVMHEALHNHYTQKSLSLSPG light 2: DIQMTQSPSSLSASVGDRVTITCKASQNVGINVAWYQRKPGDAPKSLISSASYRYSGVPSRFSGSGSGTDFTLTISSLQPEDFATYFCQQYDTYPFTFGQGTKVEIKRTVAAPSVFIFPPSDKQLKSGTASVVCLLNNFYPREAKVQWKVDNALQSGNSQESVTEQDSKDSTYSLSSTLTLSKADYEKHKVYACEVTHQGLSSPVTKSFNRGEC |
| – | no binding | no binding | Pertuzumab × BHA10 IgG BsAb, CH1/Cκ Wild-Type (AB / H4DR variable domain designs, 7.8.60 CH3, N297Q) (bispecific antibody, Human IgG1; also called Pertuzumab × BHA10 Wild-Type) heavy 1: EVQLVESGGGLVQPGGSLRLSCAASGFTFTDYTMDWVRKAPGKGLEWVADVNPNSGGSIYNQEFKGRFTLSVDRSKNTLYLQMNSLRAEDTAVYYCARNLGPSFYFDYWGQGTLVTVSSASTKGPSVFPLAPSSKSTSGGTAALGCLVKDYFPEPVTVSWNSGALTSGVHTFPAVLQSSGLYSLSSVVTVPSSSLGTQTYICNVNHKPSNTKVDKKVEPKSCDKTHTCPPCPAPELLGGPSVFLFPPKPKDTLMISRTPEVTCVVVDVSHEDPEVKFNWYVDGVEVHNAKTKPREEQYQSTYRVVSVLTVLHQDWLNGKEYKCKVSNKALPAPIEKTISKAKGQPREPQVYTLPPSREEMTDNQVSLTCLVKGFYPSDIAVEWESNGQPENNYKTTPPVLMSDGSFFLASKLTVDKSRWQQGNVFSCSVMHEALHNHYTQKSLSLSPG light 1: RIQMTQSPSSLSASVGDRVTITCKASQDVSIGVAWYQDKPGKAPKLLIYSASYRYTGVPSRFSGSGSGTDFTLTISSLQPEDFATYYCQQYYIYPYTFGQGTKVEIKRTVAAPSVFIFPPSDEQLKSGTASVVCLLNNFYPREAKVQWKVDNALQSGNSQESVTEQDSKDSTYSLSSTLTLSKADYEKHKVYACEVTHQGLSSPVTKSFNRGEC heavy 2: QVQLVQSGAEVKKPGSSVKVSCKASGYTFTTYYLHWVRYAPGQGLEWMGWIYPGNVHAQYNEKFKGRVTITADKSTSTAYMELSSLRSEDTAVYYCARSWEGFPYWGRGTTVTVSSASTKGPSVFPLAPSSKSTSGGTAALGCLVKDYFPEPVTVSWNSGALTSGVHTFPAVLQSSGLYSLSSVVTVPSSSLGTQTYICNVNHKPSNTKVDKKVEPKSCDKTHTCPPCPAPELLGGPSVFLFPPKPKDTLMISRTPEVTCVVVDVSHEDPEVKFNWYVDGVEVHNAKTKPREEQYQSTYRVVSVLTVLHQDWLNGKEYKCKVSNKALPAPIEKTISKAKGQPRRPRVYTLPPSREEMTKNQVSLVCLVKGFYPSDIAVEWESNGQPENNYKTTPPVLDSDGSFFLYSVLTVDKSRWQQGNVFSCSVMHEALHNHYTQKSLSLSPG light 2: DIQMTQSPSSLSASVGDRVTITCKASQNVGINVAWYQRKPGDAPKSLISSASYRYSGVPSRFSGSGSGTDFTLTISSLQPEDFATYFCQQYDTYPFTFGQGTKVEIKRTVAAPSVFIFPPSDEQLKSGTASVVCLLNNFYPREAKVQWKVDNALQSGNSQESVTEQDSKDSTYSLSSTLTLSKADYEKHKVYACEVTHQGLSSPVTKSFNRGEC |
| – | no binding | no binding | Pertuzumab × BHA10 IgG BsAb, CH1/Cκ design 14.1.2 (bispecific antibody, Human IgG1; also called Pertuzumab × BHA10 14.1.2) heavy 1: EVQLVESGGGLVQPGGSLRLSCAASGFTFTDYTMDWVRKAPGKGLEWVADVNPNSGGSIYNQEFKGRFTLSVDRSKNTLYLQMNSLRAEDTAVYYCARNLGPSFYFDYWGQGTLVTVSSASTKGPSVFPLAPSSKSTSGGTAALGCLVADYFPEPVTVSWNSGALTSGVHTFPAVLQSSGLYSLSSVVTVPSSSLGTQTYICNVNHKPSNTKVDEKVEPKSCDKTHTCPPCPAPELLGGPSVFLFPPKPKDTLMISRTPEVTCVVVDVSHEDPEVKFNWYVDGVEVHNAKTKPREEQYQSTYRVVSVLTVLHQDWLNGKEYKCKVSNKALPAPIEKTISKAKGQPREPQVYTLPPSREEMTDNQVSLTCLVKGFYPSDIAVEWESNGQPENNYKTTPPVLMSDGSFFLASKLTVDKSRWQQGNVFSCSVMHEALHNHYTQKSLSLSPG light 1: RIQMTQSPSSLSASVGDRVTITCKASQDVSIGVAWYQDKPGKAPKLLIYSASYRYTGVPSRFSGSGSGTDFTLTISSLQPEDFATYYCQQYYIYPYTFGQGTKVEIKRTVAAPSVFIFPPSDKQLKSGTARVVCLLNNFYPREAKVQWKVDNALQSGNSQESVTEQDSKDSTYSLSSTLTLSKADYEKHKVYACEVTHQGLSSPVTKSFNRGEC heavy 2: QVQLVQSGAEVKKPGSSVKVSCKASGYTFTTYYLHWVRYAPGQGLEWMGWIYPGNVHAQYNEKFKGRVTITADKSTSTAYMELSSLRSEDTAVYYCARSWEGFPYWGRGTTVTVSSASTKGPSVFPLAPSSKSTSGGTAALGCLVKDYFPEPVTVSWNSGALTSGVHTFPAVLQSSGLYSLSSVVTVPSSSLGTQTYICNVNHKPSNTKVDKKVEPKSCDKTHTCPPCPAPELLGGPSVFLFPPKPKDTLMISRTPEVTCVVVDVSHEDPEVKFNWYVDGVEVHNAKTKPREEQYQSTYRVVSVLTVLHQDWLNGKEYKCKVSNKALPAPIEKTISKAKGQPRRPRVYTLPPSREEMTKNQVSLVCLVKGFYPSDIAVEWESNGQPENNYKTTPPVLDSDGSFFLYSVLTVDKSRWQQGNVFSCSVMHEALHNHYTQKSLSLSPG light 2: DIQMTQSPSSLSASVGDRVTITCKASQNVGINVAWYQRKPGDAPKSLISSASYRYSGVPSRFSGSGSGTDFTLTISSLQPEDFATYFCQQYDTYPFTFGQGTKVEIKRTVAAPSVFIFPPSDEQLKSGTASVVCLLNNFYPREAKVQWKVDNALQSGNSQESVTEQDSKDSTYSLSSTLTLSKADYEKHKVYACEVTHQGLSSPVTKSFNRGEC |
